In US20240018252A1 (Pfizer, published 2024):

T1: human BCMA on BCMA-expressing tumor cells (human, UniProt Q02223 1-184)
T1 construct: endogenous BCMA of myeloma cell lines; also called BCMA on KMS12PE, MM1S (MM1.S), L363, KMS12BM cells
T1 sequence: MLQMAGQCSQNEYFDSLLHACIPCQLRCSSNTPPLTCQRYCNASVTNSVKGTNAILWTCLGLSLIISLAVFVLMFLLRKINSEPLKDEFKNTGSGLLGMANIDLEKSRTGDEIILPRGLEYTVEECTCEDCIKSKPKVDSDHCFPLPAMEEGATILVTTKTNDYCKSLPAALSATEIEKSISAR


Columns and labels:
[1] = biological target: T1, human BCMA on BCMA-expressing tumor …; experiment: flow cytometry, 0.5 ug antibody on 250,000 L363 (BCMA+) cells, Alexa Fluor 647 anti-mouse IgG
Description: (§1) Binding of human anti-hBCMA expressed in mouse IgG2a were assessed on BCMA-expressing cells (KMS12BM, L363, MM1S and KMS12PE) by flow cytometry. 250,000 cells were incubated with 0.5 ug antibody in 100 uL binding buffer (PBS (Phosphate Buffered Saline)+0.2% BSA (Bovine Serum Albumin)), followed by incubation with Alex Fluor 647 conjugated anti-mouse IgG (Biolegend).

[2] = biological target: T1, human BCMA on BCMA-expressing tumor …; experiment: flow cytometry, 0.5 ug antibody on 250,000 KMS12PE (BCMA+++) cells, Alexa Fluor 647 anti-mouse IgG
Description: as §1

[3] = biological target: T1, human BCMA on BCMA-expressing tumor …; experiment: flow cytometry, 0.5 ug antibody on 250,000 KMS12BM (BCMA+) cells, Alexa Fluor 647 anti-mouse IgG
Description: as §1

[4] = biological target: T1, human BCMA on BCMA-expressing tumor …; experiment: flow cytometry, 0.5 ug antibody on 250,000 MM1S (BCMA++) cells, Alexa Fluor 647 anti-mouse IgG
Description: as §1

human CD3 (huCD3ed) = biological target: T2, human CD3 (huCD3ed) (human, UniProt P07766 23-126; P04234 22-105); experiment: Biacore SPR, antibody as ligand, hCD3ed; steady state affinity only, rough estimate (antibody heterogeneous)
T2 construct: Soluble analyte in SPR; The delta chain is inferred from the label 'ed'; also called hCD3ed; hCD3
T2 sequence (P07766 23-126, chain 1 of 2): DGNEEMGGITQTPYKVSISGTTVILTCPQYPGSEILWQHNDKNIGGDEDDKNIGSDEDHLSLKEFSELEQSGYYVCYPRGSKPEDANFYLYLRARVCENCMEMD
T2 sequence (P04234 22-105, chain 2 of 2): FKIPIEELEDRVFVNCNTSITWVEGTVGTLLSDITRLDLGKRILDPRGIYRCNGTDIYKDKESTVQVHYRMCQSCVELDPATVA

Row | Binder | MFI [1] | MFI [2] | MFI [3] | MFI [4] | Kd (human CD3 (huCD3ed))
1 | A02_Rd4_6 nM_C16 expressed in mouse IgG2a (antibody, V domains shown) VH: EVQLLESGGGLVQPGGSLRLSCAASGFTFSSYAMNWVRQAPGKGLEWVSAISDFGGSTYYADSVKGRFTISRDNSKNTLYLQMNSLRAEDTAVYYCARYWPMDIWGQGTLVTVSS VL: EIVLTQSPGTLSLSPGERATLSCRASQSVSDLYLAWYQQKPGQAPRLLMYDASIRATGIPDRFSGSGSGTDFTLTISRLEPEDFAVYYCQQYQTWPLTFGQGTKVEIK | 789 | 3090 | 421 | 1950 | –
2 | A02_Rd4_6 nM_C01 expressed in mouse IgG2a (antibody, V domains shown) VH: EVQLLESGGGLVQPGGSLRLSCAASGFTFSSYAMNWVRQAPGKGLEWVSAITASGGSTYYADSVKGRFTISRDNSKNTLYLQMNSLRAEDTAVYYCARYWPMSLWGQGTLVTVSS VL: EIVLTQSPGTLSLSPGERATLSCRASQSVSAYYLAWYQQKPGQAPRLLMYDASIRATGIPDRFSGSGSGTDFTLTISRLEPEDFAVYYCQQYERWPLTFGQGTKVEIK | 1180 | 5860 | 580 | 2540 | –
3 | Combo_Rd4_0.6 nM_C29 expressed in mouse IgG2a (antibody, V domains shown) VH: EVQLLESGGGLVQPGGSLRLSCAASGFTFSSYPMSWVRQAPGKGLEWVSAIGGSGGSLPYADSVKGRFTISRDNSKNTLYLQMNSLRAEDTAVYYCARYWPMDIWGQGTLVTVSS VL: EIVLTQSPGTLSLSPGERATLSCRASQSVSSSYLAWYQQKPGQAPRLLMYDASIRATGIPDRFSGSGSGTDFTLTISRLEPEDFAVYYCQQYQSWPLTFGQGTKVEIK | 1670 | 6110 | 583 | 2570 | –
4 | 7A3 (antibody, mouse IgG1, V domains shown, Cloned from immunized mouse, expressed as mouse IgG1; also called anti-CD3 7A3) VH: EVQLQQSGAELVRPGALVKLSCKGSGFNIKDYYIHWVKQRPEQGLEWIGWIDPENGNNKYDPKFQGKASITADTSSNIAYLQLSSLTSEDTAVYYCARNDNYAFDYWGQGTTVTVSS VL: DIVVSQSPSSLAVSAGEKVIMSCKSSQSLLNSRTRKNYLAWYQLKPGQSPKLLIYSASTRESGVPDRFTGSGSGTDFTLTISSVQTEDLAVYYCMQSFTLRTFGGGTKLEIK | – | – | – | – | 82.7 nM
5 | 1A4 (antibody, mouse IgG1, V domains shown, Cloned from immunized mouse, expressed as mouse IgG1; also called anti-CD3 1A4) VH: QVQLQQSGPDLVKPGASVEISCKASGYSFTTYYLHWVRQRPGQGLEWIGWIFPGSDNTKYNEKFKGKATLTADTSSSTAYMQLSSLTSEDSAVYFCARNRDYYFDYWGQGTTVTVSS VL: DIVMSQSPSSLAVSAGEKVTMSCKSSQSLLNSRTRKNYLAWYQQKPGQSPKLLIYWASTRASGVPDRFTGSGSGTDFTLTISSVQAEDLAIYYCKQSFILRTFGGGTKLEIK | – | – | – | – | 100 nM
